Values joined by “and” are separate entries in the source; they are usually repeats but may differ in a detail not shown here. Equal entries are not always repeated.
Tests used:
[1] = target: MprE7-TH1 chimeric proteusin peptide; assay: NMR titration; unlabeled SrpI titrated into 42.1 µM 15N-MprE7-TH1, MprE7-TH1:SrpI molar ratios 1:0 to 1:1, FAD 1:1 with SrpI; 100 mM NaCl, 20 mM sodium phosphate pH 7.5, 10% D2O; 25 °C, 800 MHz; TITAN 2D lineshape analysis with a two-state binding model; apparent KD; fits of subsets of the seven residues
[2] = target: MprE7-TH1 chimeric proteusin peptide; assay: NMR titration; unlabeled SrpI titrated into 42.1 uM 15N-labeled MprE7-TH1, MprE7-TH1:SrpI molar ratios 1:0 to 1:1, FAD at 1:1 with SrpI; 100 mM NaCl, 20 mM sodium phosphate pH 7.5, 10% D2O, 25 °C; TITAN 2D lineshape analysis, two-state binding model; apparent

| Kd [1] | Kd [2] | koff [2] | Substance |
| --- | --- | --- | --- |
| 21.9 µM and 36.9 µM and 22 µM | – | – | SrpI brominase (enzyme) |
| – | 24.9 µM | 3.7 s⁻¹ | SrpI brominase (flavin-dependent RiPP halogenase) (enzyme) |
